{
  "source": "patent US20260231968A1",
  "about": "“AN ECO-FRIENDLY, SUSTAINABLE FOOD PRESERVATIVE” (priority 2023, published 2026)",
  "molecules": {"B1": {"name": "psoriasin: Recombinant human psoriasin (S100a7) containing a histidine tag, amino acid sequence SEQ ID NO: 11, expression vector pET-28a (protein, listed as Homo sapiens)", "chain": "MSNTQAERSIIGMIDMFHKYTRRDDKIEKPSLLTMMKENFPNFLSACDKKGTNYLADVFEKKDKNEDKKIDFSEFLSLLGDIATDYHKQSHGAAPCSGGSQ"}},
  "type_in_all_cases": "cell-based",
  "key": {"[1]": {"assay": "Thermal stability of psoriasin, microbial growth inhibition test (CLSI M27/M38)", "conditions": "stock 36 mg/mL in 1×PBS, 4° C to 84° C for one hour", "method": "In order to assess its thermal stability, psoriasin stock (36 mg/mL in 1×PBS) was subjected to various temperatures ranging from 4° C. to 84° C. for one hour. The thermally treated psoriasin was subsequently used in a microbial growth inhibition test based on standardized protocols M27 (yeasts) and M38 (filamentous fungi) of the Clinical and Laboratory Standards Institute."}, "Aspergillus flavus": {"test_system": "Aspergillus flavus", "assay": "Dose-response growth assay in 96 well plates, A. flavus in RPMI-MOPS", "conditions": "A. flavus, 5,000 spores, absorbance 600 nm", "method": "A. flavus A11 spores were seeded on 10 cm plates of YAG-agarose for 3-4 days in a humidified incubator at 30° C. After sporulation, fresh spores were collected with 5 ml DDW+0.2% Tween. Spores were then centrifuged at room temperatures (5 min, 4,000 RPM), and suspended in 5 ml DDW. The suspension was termed “A. flavus fresh stock”.\nA. flavus fresh stock was diluted ×1000 using DDW, and the spores were counted using a cytometer to determine the stock spores' concentration. A. flavus fresh stock was used for one week after spore production before disposal.\nRPMI-MOPS (RPMI Powder, 165 mM MOPS, and Pen/Strep solution (x100)) was inoculated with either 50,000 spores/ml of A. flavus, or 1 colony/10 ml of C. albicans. The inoculated RPMI-MOPS was poured into a Nunclone™ coated 96-well plate (100 μl per well), with the different treatments and controls. The 96-well plate was then incubated in a shaker/incubator plate-reader at 30° C. where the absorbance (600 nm) was monitored and measured every 10 minutes.\nIn order to evaluate the ability of recombinant His-psoriasin to inhibit the growth of Aspergillus flavus, 5,000 spores were incubated in a RPMI-MPS medium with variable concentrations of psoriasin added to each well. Fungi growth was monitored using an absorbance plate reader every 10 minutes at 600 nm."}, "[2]": {"test_system": "microbial load of hummus salad", "assay": "Shelf life of hummus salad at pH 4.8", "conditions": "pH 4.8, stored at 6° C, psoriasin 0.2%", "method": "The ability of psoriasin to extend the shelf life of a hummus salad preparation was examined. A commercially-available preparation that is acidified at pH 4.8 and to which 0.2% potassium sorbate was added in order to ensure food safety was compared to a hummus salad at the same pH with and without the addition of psoriasin at the same concentration. No antibiotics were added and there was no addition of mold, yeast or bacteria to the preparation.\nSamples were stored at 6° C. and total CFU counts were performed on days 0, 12, 26, and 62 by plating on LB and PDA agar petri dishes. Photos (i.e., visual inspection) were taken every 7 days. As is evident from FIG. 14A, psoriasin extended the shelf life of the hummus salad at pH 4.8 by 2 months."}, "[3]": {"test_system": "microbial load of hummus spread", "assay": "Shelf life of canned hummus spread at natural pH 6.5", "conditions": "pH 6.5, stored at 6° C in an open container", "method": "In a further related example, the ability of psoriasin to extend the shelf life of a canned hummus spread preparation was compared with that of nisin, a commonly used preservative at pH 6.5, the natural pH of the preparation. As described above, no antibiotics were added and there was no addition of mold, yeast or bacteria to the hummus spread. The hummus spread was split into 3 groups: i) untreated, ii) nisin-treated, and iii) psoriasin-treated. The hummus spread was stored at 6° C. in an open container. Total CFU count was determined by plating on LB and PDA agar petri dishes."}},
  "data": [
    {"molecule": "B1", "values": [
      {"measurement": "inhibitory properties after thermal treatment", "setting": "[1]", "value": "maintained its inhibitory properties"},
      {"measurement": "psoriasin concentration above which no apparent growth was measured", "setting": "Aspergillus flavus", "value": "higher than 375 nM"},
      {"measurement": "extension of shelf life of hummus salad", "setting": "[2]", "value": 2, "unit": "months"},
      {"measurement": "time without microbial growth in hummus spread", "setting": "[3]", "value": "over 32 days"}
    ]}
  ]
}
